Experimental findings from patent US20240025997A1 are described below.

Where a chain is given by its changes, count along the chain named. Where only a bound is given, the exact number is not on record here.

Experiment [1] addresses soluble rhesus ILT2-ECD (rhesus macaque). As to the kind of experiment: SPR (Biacore), antibody captured on Protein A chip, soluble rhesus ILT2-ECD injected (1.6-200 nM), 25 C. In general terms: SPR reads the build-up and loss of mass on a sensor chip optically.
The target of experiment [2] is cynomolgus monkey ILT2 (protein injected in Biacore) (cynomolgus monkey). As to the kind of experiment: SPR (Biacore), antibody captured on Protein A chip, ILT protein injected, 25 C.
Experiment [3] addresses ILT2 and/or ILT4 on human CD14+ monocytes. As to the kind of experiment: flow cytometry, fluorescently-labelled antibody on CD14+ monocytes of human PBMC. In general terms: A flow cytometer gives signals particle by particle.
Experiment [4] deals with cyno ILT2 chimeric reporter receptor (cyno ILT2 extracellular domain fused to PILRbeta transmembrane/intracellular domain) (cynomolgus monkey).
Experiment [5] concerns the target human ILT2 chimeric reporter receptor (ILT2 extracellular domain fused to PILRbeta transmembrane/intracellular domain) (human), Q8NHL6.
Experiment [6] concerns the target T1, human ILT4 chimeric reporter receptor (ILT4 extracellular domain fused to PILRbeta transmembrane/intracellular domain) (human), Q8N423.
The target of experiment [7] is ILT2 and/or ILT4 on human CD14+ monocytes. As to the kind of experiment: flow cytometry, fluorescently labelled antibody on CD14+ monocytes of human PBMC, donor Human 1, geometric MFI.
For experiment [8] the target is unchanged. As to the kind of experiment: flow cytometry, fluorescently labelled antibody on CD14+ monocytes of human PBMC, donor Human 2, geometric MFI.
Experiment [9] has as its target soluble rhesus ILT2-ECD (rhesus macaque). As to the kind of experiment: SPR (Biacore), antibody captured on Protein A chip, soluble rhesus ILT2-ECD injected, 25 C, low resolution parameters.
Experiment [10] has the same target. As to the kind of experiment: SPR (Biacore), antibody captured on Protein A chip, soluble rhesus ILT2-ECD injected, 25 C, low resolution parameters; low resolution parameters.
Experiment [11] addresses T1, human ILT4 chimeric reporter receptor …. The source holds these as a separate data set.

soluble rhesus ILT2-ECD (rhesus macaque), sequence (chain, as listed by the source limits assumed, form in doubt): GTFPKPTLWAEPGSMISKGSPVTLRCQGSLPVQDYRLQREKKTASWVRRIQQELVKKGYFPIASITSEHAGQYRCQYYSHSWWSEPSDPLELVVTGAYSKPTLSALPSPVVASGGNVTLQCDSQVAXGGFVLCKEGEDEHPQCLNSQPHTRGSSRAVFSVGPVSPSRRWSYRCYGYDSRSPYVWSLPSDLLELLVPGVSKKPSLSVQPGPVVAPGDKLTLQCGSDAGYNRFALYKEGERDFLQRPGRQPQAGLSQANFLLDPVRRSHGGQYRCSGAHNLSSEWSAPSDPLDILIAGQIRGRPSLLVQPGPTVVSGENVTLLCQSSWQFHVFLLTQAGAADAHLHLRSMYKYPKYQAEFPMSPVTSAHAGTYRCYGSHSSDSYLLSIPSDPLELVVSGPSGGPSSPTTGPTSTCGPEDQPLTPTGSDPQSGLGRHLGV
T1 sequence (Q8N423 other isoform, or with tags, fused parts or gaps mutant limits assumed): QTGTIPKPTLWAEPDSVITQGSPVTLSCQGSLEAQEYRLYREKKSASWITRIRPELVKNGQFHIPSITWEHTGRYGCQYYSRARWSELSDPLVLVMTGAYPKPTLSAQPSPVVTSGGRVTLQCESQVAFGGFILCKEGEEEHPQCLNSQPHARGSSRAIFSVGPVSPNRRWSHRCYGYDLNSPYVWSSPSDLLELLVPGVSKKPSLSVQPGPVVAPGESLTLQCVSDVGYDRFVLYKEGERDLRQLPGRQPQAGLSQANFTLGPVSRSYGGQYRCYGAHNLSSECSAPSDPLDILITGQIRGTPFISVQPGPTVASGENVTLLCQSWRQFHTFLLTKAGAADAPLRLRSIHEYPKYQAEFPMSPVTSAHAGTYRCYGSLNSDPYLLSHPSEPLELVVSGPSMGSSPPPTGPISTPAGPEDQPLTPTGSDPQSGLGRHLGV
cynomolgus monkey ILT2 (protein injected in Biacore) (cynomolgus monkey), sequence (chain, as listed by the source limits assumed, form in doubt): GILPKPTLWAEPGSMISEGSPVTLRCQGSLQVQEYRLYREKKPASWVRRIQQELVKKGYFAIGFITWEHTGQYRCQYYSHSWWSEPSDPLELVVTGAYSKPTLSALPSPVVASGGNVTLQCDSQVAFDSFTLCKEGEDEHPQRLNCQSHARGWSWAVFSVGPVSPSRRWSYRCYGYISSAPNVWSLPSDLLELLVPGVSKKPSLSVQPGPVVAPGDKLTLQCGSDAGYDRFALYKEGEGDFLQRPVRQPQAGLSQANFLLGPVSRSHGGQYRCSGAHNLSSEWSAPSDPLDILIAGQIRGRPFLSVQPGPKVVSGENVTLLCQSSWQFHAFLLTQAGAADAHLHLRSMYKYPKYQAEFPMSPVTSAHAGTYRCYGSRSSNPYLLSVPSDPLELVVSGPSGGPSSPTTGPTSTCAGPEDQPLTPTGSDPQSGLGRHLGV
human ILT2 chimeric reporter receptor (ILT2 extracellular domain fused to PILRbeta transmembrane/intracellular domain) (human), Q8NHL6, sequence (Q8NHL6 24-461 limits assumed, change not shown): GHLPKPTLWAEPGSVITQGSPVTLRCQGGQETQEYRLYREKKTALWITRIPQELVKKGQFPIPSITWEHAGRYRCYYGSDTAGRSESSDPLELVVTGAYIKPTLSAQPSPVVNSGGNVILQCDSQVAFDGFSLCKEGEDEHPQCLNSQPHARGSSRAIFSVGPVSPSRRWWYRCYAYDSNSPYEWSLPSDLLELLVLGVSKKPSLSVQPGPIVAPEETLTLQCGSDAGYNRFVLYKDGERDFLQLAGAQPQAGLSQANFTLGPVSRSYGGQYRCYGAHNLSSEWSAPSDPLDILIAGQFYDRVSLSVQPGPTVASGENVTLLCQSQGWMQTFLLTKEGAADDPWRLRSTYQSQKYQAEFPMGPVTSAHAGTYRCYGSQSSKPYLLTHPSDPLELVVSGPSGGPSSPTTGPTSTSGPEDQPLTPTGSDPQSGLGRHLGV

B1: anti-ILT4 antibody 47C8 (antibody, V domains shown)
VH: EVQLQQSGPDLVKPGASVKISCKASGYSFTGYYMHWVKQSHGKSLEWIGRVYPNNGDTSYNQKFKVKAILTVDKSSSTAYMELRSLTSEDSAVYYCARGATVVESLFAYWGQGTLVTVSA
VL: DIVLTQSPASLAVSLGQRATISCRASESVDNYGNNFLHWYQQKPGQPPKLLIYRTSNLESGIPARFSGSGSRTDFTLTINPVEADDVATYYCQQSNEDPYTFGGGTKLEIK
As for B1, in [1], the Kd (in general, the free concentration of one partner at which half of the binding sites on the other are occupied at equilibrium, for simple one-to-one binding) was 2.3 nM; the koff – broadly, the rate constant with which the complex falls apart – amounted to 0.0014 s⁻¹; the kon – broadly, the second-order rate constant of association – stood at 590000 M⁻¹ s⁻¹.

B2: humanized anti-ILT2/ILT4 antibody Hz73D1.v1 (antibody, human IgG1, kappa, N297G, V domains shown)
VH: QVQLVQSGAEVKKPGASVKVSCKASGYTFTDYYINWVRQAPGQGLEWMGNVNPNDGGTTYNQKFKGRVTMTTDTSTSTAYMELRSLRSDDTAVYYCARREIYFYGTIYYYAMDYWGQGTLVTVSS
VL: DIQLTQSPSFLSASVGDRVTITCRASESVDYYGNSFMYWYQQKPGKAPKLLIYFASNLESGVPSRFSGSGSGTEFTLTISSLQPEDFATYYCQQNNEDPWTFGGGTKVEIKR
In experiment [2], B2 had a Kd of 19.1 nM, a koff of 0.06 s⁻¹ and an on-rate (kon) of 3.4e+06 M⁻¹ s⁻¹. Moreover, in experiment [3], the EC50 (commonly the concentration that produces a half-maximal response) came out at 8.8 nM.

B3: anti-ILT2/ILT4 antibody 73D1 (antibody, V domains shown)
VH: AVQLQQSGPELVKPGASVKISCKASGYTFTDYYINWVKQSHGKSLQWIGNVNPNDGGTTYNQKFKGKATLTVDKSSSTAYMELRSLTSEDSAVYYCARREIYFYGTIYYYAMDYWGQGTSVTVSS
VL: DIVLTQSPASLAVSLGQRATISCRASESVDYYGNSFMYWYQQKPGRPPNLLIYFASNLESGVPARFSGSGSRTDFTLTIDPVEADDAATYYCQQNNEDPWTFGGGTKLEIK
In [4], B3 gave an IC50 (read off the curve), %GFP+ cyno ILT2 reporter cells co-cultured with Raji cells of 0.04 nM. The same molecule came in with an IC50 (read off the curve), %GFP+ human ILT2 reporter cells co-cultured with Raji cells in experiment [5] of 0.2 nM. Besides, in experiment [6], the IC50 (read off the curve), %GFP+ human ILT4 reporter cells co-cultured with Raji cells was determined as 0.07 nM. The EC50 (read off the curve) (as a rule, the concentration at which the effect is half-maximal) in [7] came to 4 nM. The same molecule came in with an EC50 (read off the curve) in [8] of 5 nM. In addition, in experiment [1], the dissociation constant (Kd) amounted to 1.2 nM, the koff turned out to be 6e-05 s⁻¹ and the kon was found to be 50000 M⁻¹ s⁻¹.

B4: anti-ILT2/ILT4 antibody 51A1 (antibody, V domains shown)
VH: EVQLVESGGGLVQPKGSLKLSCAASGFTFNTYAMHWVRQAPGKGLEWVARIRSKSSNYATYYADSVKDRFTISRDDSQSMLYLQMNNLKTEDTAMYYCVRDGIYYYGTMYYYAMDYWGQGTSVTVSS
VL: B3 VL with D1N, R46Q, N49K, D85A, T89S
Consider B4, for which, in experiment [1], the Kd amounted to 0.2 nM, the dissociation rate constant (koff) stood at 2.1e-05 s⁻¹ and the kon is 100000 M⁻¹ s⁻¹.

B5: anti-ILT2/ILT4 antibody 64A12 (antibody, V domains shown)
VH: B4 VH with G107D
VL: B3 VL with D1N, M37I, R46Q, N49K, D85A, T89S
Consider B5, for which, in experiment [9], the Kd is < 0.1 nM and the koff stood at 1e-05 s⁻¹. In [10], the kon came out at 20000 M⁻¹ s⁻¹.

B6: anti-ILT2/ILT4 antibody 73C4 (antibody, V domains shown)
VH: B3 VH with I34M, Q46E, D55N, T59S
VL: B3 VL
Take B6: in experiment [9], the Kd is < 0.1 nM, the koff was determined as 1e-05 s⁻¹ and the kon stood at 31000 M⁻¹ s⁻¹.

B7: anti-ILT2/ILT4 antibody 47H6 (antibody, V domains shown)
VH: EVQLQQSGPELVKPGASVKISCKASGYTFTDYYMNWVKQSHGKSLEWIGDFNPNNGGTTYNQKFEGKATLTVDKSSNTAYMDLRSLTSEDSAVYYCARGRFYYGSLYSFDYWGQGTTLTVSS
VL: DIQMTQSPASLSASVGETVTITCRASGNIHNYLAWYQQKQGKSPHLLVYNAKTLADGVPSRFSGSGSGTQYSLKINNLQPEDFGSYYCQHFWTSITFGAGTKLDLK
In the case of B7, in experiment [9], the Kd was < 0.1 nM, the off-rate constant (koff) is 1e-05 s⁻¹ and the kon stood at 47000 M⁻¹ s⁻¹.

B8: anti-ILT2 antibody 27F9 (antibody, V domains shown)
VH: QVQLKESGPGLVAPSQSLSITCTVSGFSLTNYGVSWVRQPPGKGLEWLGIIWGDGSTNYHSALISRLSISKDNSKSQVFLKLNSLQADDTATYYCAKPNWDTYAMDFWGQGTSVTVSS
VL: DIQMTQTTSSLSASLGDRVTISCRASQDISNFLNWYQQKPDGTVKLLIYCTSKLHSGVPSRFSGSGSETDYSLTISNLEQEDIATYFCQQGNTLPPTFGGGTKLEII
In the case of B8, in experiment [5], the IC50 (read off the curve), %GFP+ human ILT2 reporter cells co-cultured with Raji cells amounted to 0.04 nM.

B9: anti-ILT4 antibody 48A5 (antibody, V domains shown)
VH: QIQLVQSGPELKKPGETVKISCKASGYTFTNYGMNWVKQAPGKGLKWMGWINTYIGEPIYADDFKGRFAFSLETSASTAYLQINNLKNEDMATYFCARRSDYDGYAMDYWGQGTSVTVSS
VL: DIVMSQSPSSLAVSVGERVTMSCKSSQSLLYSGNQKNYLAWYQQKPGQSPKLLIYWASTRESGVPDRFTGSGSGTDFTLTISSVKAEDLAVYYCQQHDSYPTFGGGSRLEIK
Consider B9, for which the IC50 (read off the curve), %GFP+ human ILT4 reporter cells co-cultured with Raji cells in experiment [6] was determined as 0.02 nM. In experiment [11], the IC50 (read off the curve), %GFP+ human ILT4 reporter cells co-cultured with 721.221-HLA-G cells was determined as 0.02 nM. In experiment [1], this molecule yielded a Kd of 2.3 nM, a koff of 0.0026 s⁻¹ and an on-rate constant (kon) of 1.1e+06 M⁻¹ s⁻¹.
